{
  "source": "patent US20230158141A1",
  "about": "(YAFEI SHANGHAI BIOLOG MEDICINE SCIENCE AND TECHNOLOGY, published 2023)",
  "binders": {"B1": {"name": "Beva-se001 conjugated to S47 (antibody, human IgG1, kappa, V domains shown)", "VH": "EVQLVESGGGLVQPGGSLRLSCAASGYTFTNYGMNWVRQAPGKGLEWVGWINTYTGEPTYAADFCRRFTFSLDTSKSTAYLQMNSLRAEDTAVYYCAKYPHYYGSSHWYFDVWGQGTLVTVSS", "VL": "DIQMTQSPSSLSASVGDRVTITCSASQDISNYLNWYQQKPGKAPKVLIYFTSSLHSGVPSRFSGSGSGTDFTLTISSLQPEDFATYYCQQYSTVPWTFGQGTKVEIKR", "modifications": "S47 on Cys 65", "notes": "Bevacizumab mutant"}, "B2": {"name": "Pem-se007 (Pembrolizumab light chain Gly28Cys) (antibody, human IgG4 S228P, kappa, V domains shown)", "VH": "QVQLVQSGVEVKKPGASVKVSCKASGYTFTNYYMYWVRQAPGQGLEWMGGINPSNGGTNFNEKFKNRVTLTTDSSTTTAYMELKSLQFDDTAVYYCARRDYRFDMGFDYWGQGTTVTVSS", "VL": "EIVLTQSPATLSLSPGERATLSCRASKCVSTSGYSYLHWYQQKPGQAPRLLIYLASYLESGVPARFSGSGSGTDFTLTISSLEPEDFAVYYCQHSRDLPLTFGGGTKVEIKR", "modifications": "Cys at 28 carries the group named in the row"}, "B3": {"name": "chemically modified IL2 Arg38Asp/Glu61Arg with Lys9 and Lys76 conjugated with R4-7 (other)", "chain": "APASSTKCTQLQLEHLLLDLQMILNGINNYKNPKLTDMLTFKFYMPKKATELKHLQCLERELKPLEEVLNLAQSCNFHLRPRDLISNINVIVLELKGSETTFMCEYADETATIVEFLNRWITFSQSIISTLT", "modifications": "R4-7 on Cys 9 and Cys 76", "notes": "also called a new chemically modified IL2"}, "B4": {"name": "J43v2 TMEAbody (anti-mouse PD-1 antibody J43v2, Ser95 on LC) (antibody, mouse IgG2a, V domains shown)", "VH": "EVRLLESGGGLVKPEGSLKLSCVASGFTFSDYFMSWVRQAPGKGLEWVAHIYTKSYNYATYYSGSVKGRFTISRDDSRSMVYLQMNNLRTEDTATYYCTRDGSGYPSLDFWGQGTQVTVSS", "VL": "YELTQPPSASVNVGETVKITCSGDQLPKYFADWFHQRSDQTILQVIYDDNKRPSGIPERISGSSSGTTATLTIRDVRAEDEGDYYCFSGYVDSDCKLYVFGSGTQLTVLG", "modifications": "functional moiety on Cys 95 (which R1-R2-R3-R4 is not stated)", "notes": "Heavy chain re-formatted into mouse IgG2a"}, "B5": {"name": "Ipi-se009 (Ipilimumab light chain Ser54Cys, Kabat L53) (antibody, human IgG1, kappa, V domains shown)", "VH": "QVQLVESGGGVVQPGRSLRLSCAASGFTFSSYTMHWVRQAPGKGLEWVTFISYDGNNKYYADSVKGRFTISRDNSKNTLYLQMNSLRAEDTAIYYCARTGWLGPFDYWGQGTLVTVSS", "VL": "not shown", "modifications": "Cys at 54 (Kabat L53) carries the group named in the row"}, "B6": {"name": "9D9 TMEAbody (anti-mouse CTLA-4 antibody 9D9, Tyr54 on LC) (antibody, mouse IgG2b, kappa)", "heavy": "EAKLQESGPVLVKPGASVKMSCKASGYTFTDYYMNWVKQSHGKSLEWIGVINPYNGDTSYNQKFKGKATLTVDKSSSTAYMELNSLTSEDSAVYYCARYYGSWFAYWGQGTLITVSTAKTTPPSVYPLAPGCGDTTGSSVTLGCLVKGYFPESVTVTWNSGSLSSSVHTFPALLQSGLYTMSSSVTVPSSTWPSQTVTCSVAHPASSTTVDKKLEPSGPISTINPCPPCKECHKCPAPNLEGGPSVFIFPPNIKDVLMISLTPKVTCVVVDVSEDDPDVQISWFVNNVEVHTAQTQTHREDYNSTIRVVSTLPIQHQDWMSGKEFKCKVNNKDLPSPIERTISKIKGLVRAPQVYILPPPAEQLSRKDVSLTCLVVGFNPGDISVEWTSNGHTEENYKDTAPVLDSDGSYFIYSKLNMKTSKWEKTDSFSCNVRHEGLKNYYLKKTISRSPGK", "light": "DIVMTQTTLSLPVSLGDQASISCRSSQSIVHSNGNTYLEWYLQKPGQSPKLLICKVSNRFSGVPDRFSGSGSGTDFTLKISRVEAEDLGVYYCFQGSHVPYTFGGGTKLEIKRADAAPTVSIFPPSSEQLTSGGASVVCFLNNFYPKDINVKWKIDGSERQNGVLNSWTDQDSKDSTYSMSSTLTLTKDEYERHNSYTCEATHKTSTSPIVKSFNRNEC", "modifications": "functional moiety on Cys 54 (which R1-R2-R3-R4 is not stated)", "notes": "mIgG2b isotype"}, "B7": {"name": "anti-PD-1 antibody 2 light chain Y32C (antibody, human IgG4 S228P, kappa, V domains shown)", "VH": "QVQLVESGGGVVQPGRSLRLDCKASGITFSNSGMHWVRQAPGKGLEWVAVIWYDGSKRYYADSVKGRFTISRDNSKNTLFLQMNSLRAEDTAVYYCATNDDYWGQGTLVTVSS", "VL": "EIVLTQSPATLSLSPGERATLSCRASQSVSSCLAWYQQKPGQAPRLLIYDASNRATGIPARFSGSGSGTDFTLTISSLEPEDFAVYYCQQSSNWPRTFGQGTKVEIKR"}, "B8": {"name": "Niv-se007 (Nivolumab light chain Ser91Cys) (antibody, human IgG4 S228P, kappa, V domains shown)", "VH": "B7 VH", "VL": "B7 VL with C32Y, S91C", "modifications": "Cys at 91 carries the group named in the row"}},
  "key": {"[1]": {"molecular_target": "His tagged VEGF protein (UniProt P15692-4 27-191, limits assumed)", "sequence (P15692 other isoform, or with tags, fused parts or gaps limits assumed)": "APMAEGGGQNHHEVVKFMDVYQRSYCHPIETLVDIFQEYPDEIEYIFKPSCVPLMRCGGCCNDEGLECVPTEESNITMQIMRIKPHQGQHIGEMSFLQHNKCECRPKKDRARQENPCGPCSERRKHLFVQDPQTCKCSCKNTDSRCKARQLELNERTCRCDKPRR", "assay": "ELISA, His tagged VEGF protein"}, "[2]": {"molecular_target": "T1, human Fc tagged PD-1 protein (Sino Biological) (human, UniProt Q15116 25-167)", "T1 construct": "bought; also called Fc tagged human PD-1 protein", "T1 sequence (Q15116 25-167 limits assumed)": "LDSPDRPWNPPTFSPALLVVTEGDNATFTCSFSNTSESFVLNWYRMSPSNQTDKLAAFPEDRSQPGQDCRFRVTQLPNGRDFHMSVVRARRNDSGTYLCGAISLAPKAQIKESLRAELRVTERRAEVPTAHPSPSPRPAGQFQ", "assay": "ELISA, EC50 fold change; S47 on the Cys"}, "[3]": {"molecular_target": "T2, IL2Rβ-Fc (UniProt P14784 27-239, limits assumed)", "T2 construct": "also called IL2Rb; not shown: Fc part, not described", "T2 sequence (looked up)": "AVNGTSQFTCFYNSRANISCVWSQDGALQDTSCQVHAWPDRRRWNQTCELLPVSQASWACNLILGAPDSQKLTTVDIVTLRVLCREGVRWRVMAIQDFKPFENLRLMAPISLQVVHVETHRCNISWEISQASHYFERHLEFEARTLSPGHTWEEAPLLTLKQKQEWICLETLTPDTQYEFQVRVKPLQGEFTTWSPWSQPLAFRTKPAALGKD", "assay": "ELISA, against wild type IL2"}, "[4]": {"molecular_target": "T3, mouse PD-1 protein (mouse, UniProt Q02242 25-167, limits assumed)", "T3 sequence (looked up)": "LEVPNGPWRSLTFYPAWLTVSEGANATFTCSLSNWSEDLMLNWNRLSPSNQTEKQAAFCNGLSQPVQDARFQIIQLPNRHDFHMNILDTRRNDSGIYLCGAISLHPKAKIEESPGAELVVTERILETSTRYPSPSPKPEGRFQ", "assay": "ELISA, TMEAbody against WT J43v2"}, "[5]": {"molecular_target": "T4, CTLA-4 (UniProt P16410 36-162, limits assumed)", "T4 construct": "also called CTLA-4 protein", "T4 sequence (P16410 36-162 limits assumed)": "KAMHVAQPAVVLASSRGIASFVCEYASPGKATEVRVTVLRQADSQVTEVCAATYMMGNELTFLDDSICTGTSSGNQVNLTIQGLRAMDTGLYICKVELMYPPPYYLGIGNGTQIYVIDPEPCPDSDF", "assay": "ELISA; S47 on the Cys"}, "[6]": {"molecular_target": "T4, CTLA-4", "assay": "ELISA; R4-1 on the Cys"}, "[7]": {"molecular_target": "T4, CTLA-4", "assay": "ELISA; R4-1 on the Cys", "remark": "listed apart in the source"}, "[8]": {"molecular_target": "T5, human CTLA-4 Fc fusion protein (R&D systems) (human, UniProt P16410 37-162)", "T5 construct": "bought", "T5 sequence (P16410 37-162 limits assumed)": "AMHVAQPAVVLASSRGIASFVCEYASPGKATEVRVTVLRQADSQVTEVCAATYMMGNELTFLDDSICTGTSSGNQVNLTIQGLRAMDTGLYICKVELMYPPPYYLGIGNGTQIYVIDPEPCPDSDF", "assay": "ELISA, fold change of EC50; S47 on the Cys"}, "[9]": {"molecular_target": "T5, human CTLA-4 Fc fusion protein (R&D …)", "assay": "receptor blocking ELISA against biotinylated B7-1 or B7-2; TMEAbody (S47 conjugate)"}, "[10]": {"molecular_target": "mouse CTLA-4 protein (mouse, UniProt P09793 36-162, limits assumed)", "assay": "ELISA, TMEAbody against WT 9D9"}, "[11]": {"molecular_target": "PD-1 (UniProt Q15116 25-167, limits assumed)", "assay": "ELISA, OD mutant/OD WT; ↓=less than 70%"}, "[12]": {"molecular_target": "T6, PD-1 (UniProt Q15116 25-167, limits assumed)", "T6 construct": "also called PD-1 antigen", "assay": "ELISA, EC50 fold change; S47 on the Cys"}},
  "note": "Where a chain is given by its changes, count along the chain named. Names and notes keep the numbering of the source. Where two headings read alike, the source gives them in different places.",
  "data": [
    {"binder": "B1", "values": [
      {"measurement": "Blocking efficiency of S47", "setting": "[1]", "value": 9, "unit": "fold"}
    ]},
    {"binder": "B2", "values": [
      {"measurement": "Blocking efficiency of S47", "setting": "[2]", "value": 8, "unit": "fold"}
    ]},
    {"binder": "B3", "values": [
      {"measurement": "fold increase of binding", "setting": "[3]", "value": 1.35, "unit": "fold"}
    ]},
    {"binder": "B4", "values": [
      {"measurement": "blocking efficiency (fold)", "setting": "[4]", "value": 35, "unit": "fold"}
    ]},
    {"binder": "B5", "values": [
      {"measurement": "Activity after S47 (40 kD) blocking", "setting": "[5]", "value": 5, "unit": "%"},
      {"measurement": "Binding activity", "setting": "[6]", "value": 98, "unit": "%"},
      {"measurement": "Binding activity", "setting": "[7]", "value": 98, "unit": "%"},
      {"measurement": "Blocking efficiency after conjugation with S47", "setting": "[8]", "value": 22, "unit": "fold"},
      {"measurement": "Blocking efficiency (RBA), fold change of IC50", "setting": "[9]", "value": 18, "unit": "fold"}
    ]},
    {"binder": "B6", "values": [
      {"measurement": "blocking efficiency (fold)", "setting": "[10]", "value": 26, "unit": "fold"}
    ]},
    {"binder": "B7", "values": [
      {"measurement": "binding activity vs wild type", "setting": "[11]", "value": "< 70", "unit": "%"}
    ]},
    {"binder": "B8", "values": [
      {"measurement": "Blocking efficiency of S47", "setting": "[12]", "value": 25, "unit": "fold"}
    ]}
  ]
}
